Measurements reported in US20060009379A1 (GOVERNMENT OF THE UNITED STATES OF AMERICAN AS REPRESENTED …, published 2006).

B1: HA-tagged nucleostemin mutant dA (deletion of the acidic domain, codons 460-503) (other)
chain: MKRPKLKKASKRMTCHKRYKIQKKVREHHRKLRKEAKKRGHKKPKKDPGVPNSAPFKEALLREAELRKQQLEELKQQQKLDRQKEQERKRKLEISPDDEQSNVETQEESDEPKIKKAKSGKQNPKKLHCQELKKVIEASDIVLEVLDARDPLGCRCPQVEEAVIQSGCKKLVLVLNKSDLVPKENLENWLTYLNKELPTVVFKASTNLKNRKKTFKIKKKVVPFQSKLCCGKEALWKLLGGFQQSCGKGVQVGVVGFPNVGKSSIINSLKQERICSVGVSMGLTRSMQIVPLDKQITIIDSPCFIISPCNSPAALALRSPASIEVLRPLEAASAILSQADSQQVVLKYTVPGYKDSLDFFTKLAQRRGLHQKGGSPNVESAAKLLWSEWTGASLGYYCHPPASWNHSPHFNENITAIMKRGFNLEELEKNNAHSIQVLKGPHLTNKILFRSSGLTNGILMSPGQSTASKPSDRSFILDKMSEEDDAYDFTTDYI
notes: not shown: HA (hemagglutinin) tag
B2: HA-tagged nucleostemin mutant dCC (deletion of the coiled-coil domain, codons 61-87) (other)
chain: MKRPKLKKASKRMTCHKRYKIQKKVREHHRKLRKEAKKRGHKKPKKDPGVPNSAPFKEALRKRKLEISPDDEQSNVETQEESDEPKIKKAKSGKQNPKKLHCQELKKVIEASDIVLEVLDARDPLGCRCPQVEEAVIQSGCKKLVLVLNKSDLVPKENLENWLTYLNKELPTVVFKASTNLKNRKKTFKIKKKVVPFQSKLCCGKEALWKLLGGFQQSCGKGVQVGVVGFPNVGKSSIINSLKQERICSVGVSMGLTRSMQIVPLDKQITIIDSPCFIISPCNSPAALALRSPASIEVLRPLEAASAILSQADSQQVVLKYTVPGYKDSLDFFTKLAQRRGLHQKGGSPNVESAAKLLWSEWTGASLGYYCHPPASWNHSPHFNENITAIMKRGFNLEELEKNNAHSIQVLKGPHLTNKILFRSSGLTNGILEEKDIPEESPKQTEDQQDGDDQEHVTGEKNAEISDVTPVEETREMSPGQSTASKPSDRSFILDKMSEEDDAYDFTTDYI
notes: as for B1
B3: HA-tagged nucleostemin mutant dB (deletion of the basic domain, codons 2-46) (other)
chain: MDPGVPNSAPFKEALLREAELRKQQLEELKQQQKLDRQKEQERKRKLEISPDDEQSNVETQEESDEPKIKKAKSGKQNPKKLHCQELKKVIEASDIVLEVLDARDPLGCRCPQVEEAVIQSGCKKLVLVLNKSDLVPKENLENWLTYLNKELPTVVFKASTNLKNRKKTFKIKKKVVPFQSKLCCGKEALWKLLGGFQQSCGKGVQVGVVGFPNVGKSSIINSLKQERICSVGVSMGLTRSMQIVPLDKQITIIDSPCFIISPCNSPAALALRSPASIEVLRPLEAASAILSQADSQQVVLKYTVPGYKDSLDFFTKLAQRRGLHQKGGSPNVESAAKLLWSEWTGASLGYYCHPPASWNHSPHFNENITAIMKRGFNLEELEKNNAHSIQVLKGPHLTNKILFRSSGLTNGILEEKDIPEESPKQTEDQQDGDDQEHVTGEKNAEISDVTPVEETREMSPGQSTASKPSDRSFILDKMSEEDDAYDFTTDYI
notes: as for B1
B4: HA-tagged nucleostemin mutant dG4 (deletion of the G4 GTP-binding motif, codons 177-180) (other)
chain: MKRPKLKKASKRMTCHKRYKIQKKVREHHRKLRKEAKKRGHKKPKKDPGVPNSAPFKEALLREAELRKQQLEELKQQQKLDRQKEQERKRKLEISPDDEQSNVETQEESDEPKIKKAKSGKQNPKKLHCQELKKVIEASDIVLEVLDARDPLGCRCPQVEEAVIQSGCKKLVLVLNVPKENLENWLTYLNKELPTVVFKASTNLKNRKKTFKIKKKVVPFQSKLCCGKEALWKLLGGFQQSCGKGVQVGVVGFPNVGKSSIINSLKQERICSVGVSMGLTRSMQIVPLDKQITIIDSPCFIISPCNSPAALALRSPASIEVLRPLEAASAILSQADSQQVVLKYTVPGYKDSLDFFTKLAQRRGLHQKGGSPNVESAAKLLWSEWTGASLGYYCHPPASWNHSPHFNENITAIMKRGFNLEELEKNNAHSIQVLKGPHLTNKILFRSSGLTNGILEEKDIPEESPKQTEDQQDGDDQEHVTGEKNAEISDVTPVEETREMSPGQSTASKPSDRSFILDKMSEEDDAYDFTTDYI
notes: as for B1

Biological target: T1, GST-p53 fusion protein (UniProt P04637 1-393)
T1 construct: not shown: glutathione S-transferase (GST) fusion partner
Assay: GST-p53 pull-down of HA-tagged protein from H1299 lysate, α-HA Western blot
Protocol: FIG. 6F is a digital image of mapping of p53-interacting region in nucleostemin by GST pull-down assay. […] The retained proteins (bound) were detected by α-HA Western blot and expressed as ratios to the input.
To map the interacting region between nucleostemin and p53, HA-tagged mutant proteins were expressed in H1299 cells and incubated with agarose-bound GST-p53 fusion protein in GST pull-down experiments. The amount of mutant proteins retained by GST-p53 fusion was measured by Western blot and presented as the ratio to the input proteins.

T1 sequence (P04637 whole entry, the tested form may be a part): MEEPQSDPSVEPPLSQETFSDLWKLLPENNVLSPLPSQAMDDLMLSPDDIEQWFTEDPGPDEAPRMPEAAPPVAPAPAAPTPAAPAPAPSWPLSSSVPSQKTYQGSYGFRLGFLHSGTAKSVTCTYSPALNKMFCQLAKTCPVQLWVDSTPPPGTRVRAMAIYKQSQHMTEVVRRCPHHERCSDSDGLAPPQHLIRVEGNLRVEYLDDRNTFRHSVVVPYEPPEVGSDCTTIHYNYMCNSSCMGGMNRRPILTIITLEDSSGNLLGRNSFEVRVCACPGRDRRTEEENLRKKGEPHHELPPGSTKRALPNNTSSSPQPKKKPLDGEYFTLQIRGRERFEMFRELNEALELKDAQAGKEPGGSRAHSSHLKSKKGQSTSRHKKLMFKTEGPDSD

Binder	fold reduction of the amount bound, against wild-type nucleostemin [fold]	other results
B1	1.5	
B2	1.5	
B3		binding of nucleostemin to p53 (retained protein, ratio to input): 17%
B4		fold increase of the amount bound, against wild-type nucleostemin: 1.5 fold
